In patent US20170042979A1:

Biological target: soluble form of cation-independent mannose-6-phosphate receptor (lacking the membrane anchor sequence)
Experiment: SPR (Biacore), soluble CIMPR immobilised on dextran chip, analyte flowed at 20 µL/min, RU after 3 min less control cell

**Q.** For “α-galactosidase conjugated to 10 kDa 4-arm dendrimer (star) hydrazide PEG (Hz4PEG), prepared with 10% w/v PEG (from UniProt P06280 32-429) (enzyme)”, which fold higher concentration needed for the same change in RU, against unmodified α-galactosidase is on record?
**A.** 10 fold
